The target of this test is AG^(74-173) (A. thaliana) (UniProt P17839). Kind of test: SAXS with on-line SEC; Superdex 75 3.2/300 PC on-line at ESRF BM29, 0.1 ml/min, room temperature, 30 mM Tris pH 8.0, 300 mM NaCl, 1 mM TCEP, 5% glycerol; mass from correlated volume and Porod volume; self-association.

Results on one substance are retold here after publication PMC4701952.

Sequence of AG^(74-173) (P17839 74-173): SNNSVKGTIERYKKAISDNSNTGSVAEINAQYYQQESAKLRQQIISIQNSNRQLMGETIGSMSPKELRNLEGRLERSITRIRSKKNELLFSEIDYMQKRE

The stoichiometry N is the number of molecules, sites or subunits per partner or assembly. As for “AG^(74-173) (from UniProt P17839 74-173) (domain or fragment)”, the stoichiometry N came to 2.
